T1: hGP130-his (Sino Biological, Catalog #10974) (human, UniProt P40189 23-619)
T1 construct: Bought his-tagged cytokine receptor used as SPR analyte; also called human gp130 receptor subunit; IL6 receptor beta subunit; not shown: his tag
T1 sequence: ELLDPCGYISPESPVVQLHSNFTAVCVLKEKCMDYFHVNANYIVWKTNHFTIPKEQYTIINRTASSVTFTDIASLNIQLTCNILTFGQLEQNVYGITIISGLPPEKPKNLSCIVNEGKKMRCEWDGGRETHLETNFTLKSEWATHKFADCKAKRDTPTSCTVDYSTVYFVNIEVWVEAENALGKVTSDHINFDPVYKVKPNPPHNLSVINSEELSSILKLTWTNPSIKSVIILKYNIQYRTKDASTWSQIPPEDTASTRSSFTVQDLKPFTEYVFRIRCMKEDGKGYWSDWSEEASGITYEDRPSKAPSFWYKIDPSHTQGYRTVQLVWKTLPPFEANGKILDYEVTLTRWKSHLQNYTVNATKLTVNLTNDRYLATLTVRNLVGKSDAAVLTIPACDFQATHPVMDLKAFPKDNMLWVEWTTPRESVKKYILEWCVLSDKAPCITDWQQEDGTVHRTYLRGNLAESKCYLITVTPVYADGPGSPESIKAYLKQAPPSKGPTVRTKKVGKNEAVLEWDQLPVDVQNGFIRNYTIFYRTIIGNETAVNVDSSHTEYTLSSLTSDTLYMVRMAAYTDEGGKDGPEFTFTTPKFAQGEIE

T2: hIL27Ra-his (Origene, Catalog #TP307012) (human, UniProt Q6UWB1 33-516, limits assumed)
T2 construct: Bought his-tagged cytokine receptor used as SPR analyte; also called human IL27 receptor subunit alpha; not shown: his tag
T2 sequence: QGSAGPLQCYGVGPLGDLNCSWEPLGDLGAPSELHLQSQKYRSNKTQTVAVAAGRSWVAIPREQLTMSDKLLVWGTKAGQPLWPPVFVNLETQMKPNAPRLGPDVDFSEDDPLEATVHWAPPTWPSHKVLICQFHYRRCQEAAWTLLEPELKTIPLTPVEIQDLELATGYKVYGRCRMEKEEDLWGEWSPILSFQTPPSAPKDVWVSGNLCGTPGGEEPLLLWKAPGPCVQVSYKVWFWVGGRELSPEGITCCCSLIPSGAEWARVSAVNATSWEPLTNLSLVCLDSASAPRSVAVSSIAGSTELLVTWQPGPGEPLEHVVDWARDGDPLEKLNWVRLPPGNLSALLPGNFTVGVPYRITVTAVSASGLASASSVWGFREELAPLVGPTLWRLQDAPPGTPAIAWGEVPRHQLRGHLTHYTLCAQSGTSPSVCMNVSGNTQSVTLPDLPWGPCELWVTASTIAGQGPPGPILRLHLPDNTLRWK


Experiments:
[1] = molecular target: T1, hGP130-his (Sino Biological, Catalog …); test: SPR Biacore T200, hgp130 arm
Description: (§1) All experiments were conducted in 10 mM Hepes, 150 mMv NaCl, 0.05% (v/v) Polysorbate 20 (PS20) and 3 mMv EDTA (HBS-EP+ buffer) on a Biacore® T200 instrument equipped with a Protein A chip (Cytiva). Mono-Fc VHH ligands were flowed at 5 μl/min for variable time ranging from 18 to 300 seconds, reaching the capture loads listed in the tables below.
(§2) Following ligand capture, injections of a 2-fold dilution series of his-tagged cytokine receptors typically comprising at least five concentrations between 1 μM and 1 nM were performed in either high performance or single cycle kinetics mode. Surface regeneration was achieved by flowing 10 mMv glycine-HCl, pH 1.5 (60 seconds, 50 μL/min). Buffer-subtracted sensograms were processed with Biacore® T200 Evaluation Software and globally fit with a 1:1 Langmuir binding model (bulk shift set to zero) to extract kinetics and affinity constants (ka, kd, KD). RMAX<100 RU indicates surface density compatible with kinetics analysis. Calculated Rmax were generated using the equation Rmax=Load (RU)×valency of ligand×(Molecular weight of analyte/Molecular weight of ligand. Surface activity was defined as the ratio experimental/calculated Rmax. See tables below for sample information and experimental results.

[2] = molecular target: T1, hGP130-his (Sino Biological, Catalog …); test: SPR Biacore T200; mono-Fc VHH on Protein A chip, hGP130-his analyte
Description: as §1, §2

[3] = molecular target: T1, hGP130-his (Sino Biological, Catalog …); test: SPR Biacore T200; ratio experimental/calculated Rmax
Description: as §1, §2

[4] = molecular target: T2, hIL27Ra-his (Origene, Catalog #TP307012); test: SPR Biacore T200, hIL27Ra arm
[5] = molecular target: T2, hIL27Ra-his (Origene, Catalog #TP307012); test: SPR Biacore T200; mono-Fc VHH on Protein A chip, hIL27Ra-his analyte
Description: as §1, §2

[6] = molecular target: T2, hIL27Ra-his (Origene, Catalog #TP307012); test: SPR Biacore T200; ratio experimental/calculated Rmax
Description: as §1, §2

Row | Binder | Kd [1] [nM] | koff [1] [s⁻¹] | kon [1] [M⁻¹ s⁻¹] | Kd [2] [nM] | koff [2] [s⁻¹] | kon [2] [M⁻¹ s⁻¹] | Surface Activity [3] [%] | Kd [4] [nM] | koff [4] [s⁻¹] | kon [4] [M⁻¹ s⁻¹] | Kd [5] [nM] | koff [5] [s⁻¹] | kon [5] [M⁻¹ s⁻¹] | Surface Activity [6] [%]
1 | hIL27Ra_VHH9 (VHH) VHH: QVQLQESGGGSVQSGGSLRLSCAASGFTYSTSNSWMAWFRQAPGKEREGVAAIYTVGGSIFYADSVRGRFTISQDATKNMFYLQMNTLKPEDTAMYYCAAASGRLRGKWFWPYEYNYWGQGTQVTVSS | – | – | – | – | – | – | – | 4.5 | 0.00041 | 91000 | – | – | – | –
2 | 15-DR592 (SEQ ID NO. 233), anti-hGP130 Mono-Fc VHH (Fc fusion, Mono-Fc VHH ligand captured on a Protein A chip; not shown: mono-Fc part) QVQLQESGGGSVQAGGSLRLSCTAPGFTSNSCGMDWYRQAPGKEREFVSSISTDGTTGYADSVKGRFTISKDKAKDTVYLQMNSLKPEDTGMYSCKTKDGTIATMELCDFGYWGQGTQVTVSS | 38 | 0.0059 | 160000 | 38 | 0.0059 | 160000 | 33 | – | – | – | – | – | – | –
3 | 16-DR593 (SEQ ID NO. 234), anti-hGP130 Mono-Fc VHH (Fc fusion, Mono-Fc VHH ligand captured on a Protein A chip; not shown: mono-Fc part) QVQLQESGGGSVQAGGSLRLSCAASGYPYSNGYMGWFRQAPGKEREGVATIYTGDGRTYYADSVKGRFTISRDNAKNTVDLQMSSLKPEDTAMYYCAARAAPLYSSGSPLTRARYNVWGQGTQVTVSS | 82 | 0.021 | 250000 | 82 | 0.021 | 250000 | 20 | – | – | – | – | – | – | –
4 | hIL27Ra_VHH19 (VHH) VHH: QVQLQESGGGSVQAGGSLRLSCRASGSTYSNYCLGWFRQITGKEREGVAVINWVGGMLYFADSVKGRFTVSQDQAKNTVYLQMNSLKPEDTAMYYCAAESVSSFSCGGWLTRPDRVPYWGQGTQVTVSS | – | – | – | – | – | – | – | 5.2 | 0.00076 | 150000 | – | – | – | –
5 | 25-DR602 (SEQ ID NO. 250), anti-hIL27Ra Mono-Fc VHH (Fc fusion, Mono-Fc VHH ligand captured on a Protein A chip; not shown: mono-Fc part) QVQLQESGGGSVQAGGSLRLSCRASGSTYSNYCLGWFRQITGKEREGVAVINWVGGMLYFADSVKGRFTVSQDQAKNTVYLQMNSLKPEDTAMYYCAAESVSSFSCGGWLTRPDRVPYWGQGTQVTVSS | – | – | – | – | – | – | – | – | – | – | 5.2 | 0.00076 | 150000 | 20
6 | hIL27Ra_VHH21 (VHH) VHH: QVQLQESGGGLVQPGGSLRLSCAASGFTFSLSSMSWVRQAPGKGLEWVSAISSGGASTYYTDSVKGRFTISRDNAKNMLYLQLNSLKTEDTAMYYCAKGGSGYGDASRMTSPGSQGTQVTVSS | – | – | – | – | – | – | – | 6.1 | 0.00077 | 130000 | – | – | – | –
7 | hIL27Ra_VHH15 (VHH) VHH: QVQLQESGGGSVQAGGSLRLSCVASGYVSCDYFLPSWYRQAPGKEREFVSIIDGTGSTSYAASVKGRFTASQDKGKNIAYLQMNTLKPEDTAMYYCKASCVRGRAISEYWGQGTQVTVSS | – | – | – | – | – | – | – | 17 | 0.001 | 59000 | – | – | – | –
8 | 24-DR601 (SEQ ID NO. 249), anti-hIL27Ra Mono-Fc VHH (Fc fusion, Mono-Fc VHH ligand captured on a Protein A chip; not shown: mono-Fc part) QVQLQESGGGSVQAGGSLRLSCVASGYVSCDYFLPSWYRQAPGKEREFVSIIDGTGSTSYAASVKGRFTASQDKGKNIAYLQMNTLKPEDTAMYYCKASCVRGRAISEYWGQGTQVTVSS | – | – | – | – | – | – | – | – | – | – | 4.5 | 0.00041 | 91000 | 12

Next, values leading:

Row | Kd [1] [nM] | koff [1] [s⁻¹] | kon [1] [M⁻¹ s⁻¹] | Kd [2] [nM] | koff [2] [s⁻¹] | kon [2] [M⁻¹ s⁻¹] | Surface Activity [3] [%] | Kd [4] [nM] | koff [4] [s⁻¹] | kon [4] [M⁻¹ s⁻¹] | Kd [5] [nM] | koff [5] [s⁻¹] | kon [5] [M⁻¹ s⁻¹] | Surface Activity [6] [%] | Binder
9 | 41 | 0.0073 | 180000 | 41 | 0.0073 | 180000 | 33 | – | – | – | – | – | – | – | 18-DR595 (SEQ ID NO. 236), anti-hGP130 Mono-Fc VHH (Fc fusion, Mono-Fc VHH ligand captured on a Protein A chip; not shown: mono-Fc part) QVQLQESGGGSVQAGGSLTLSCAASEYAYSTCNMGWYRQAPGKERELVSAFISDGSTYYADSVKGRFTITRDNAKNTVYLQMNSLKPEDTAIYYCSANCYRRLRNYWGQGTQVTVSS
10 | 33 | 0.0019 | 59000 | 33 | 0.0019 | 59000 | 21 | – | – | – | – | – | – | – | 14-DR591 (SEQ ID NO. 232), anti-hGP130 Mono-Fc VHH (Fc fusion, Tested as Mono-Fc VHH ligand captured on a Protein A chip; not shown: mono-Fc part) QVQLQESGGGSVQAGGSLRLSCTASGAIASGYIDSRWCMAWFRQAPGKEREGVAAIWPGGGLTVYADSVKGRFTISRDHAKNTLYLQMNNLKPEDTAMYYCAAGSPRMCPSLEFGFDYWGQGTQVTVSS
11 | – | – | – | – | – | – | – | 19 | 0.00057 | 30000 | – | – | – | – | hIL27Ra_VHH1 (VHH) VHH: QVQLQESGGGLVQPGGSLRLSCAASGFTFSSYPMSWVRQAPGKGLEWISTISAGGDTTLYADSVKGRFTSSRDNAKNTLYLQLNSLKTEDAAIYYCAKRIDCNSGYCYRRNYWGQGTQVTVSS
12 | – | – | – | – | – | – | – | – | – | – | 19 | 0.00057 | 30000 | 4 | 20-DR597 (SEQ ID NO. 245), anti-hIL27Ra Mono-Fc VHH (Fc fusion, Mono-Fc VHH ligand captured on a Protein A chip; not shown: mono-Fc part) QVQLQESGGGLVQPGGSLRLSCAASGFTFSSYPMSWVRQAPGKGLEWISTISAGGDTTLYADSVKGRFTSSRDNAKNTLYLQLNSLKTEDAAIYYCAKRIDCNSGYCYRRNYWGQGTQVTVSS
13 | – | – | – | – | – | – | – | – | – | – | 17 | 0.001 | 59000 | 13 | 23-DR600 (SEQ ID NO. 248), anti-hIL27Ra Mono-Fc VHH (Fc fusion, Mono-Fc VHH ligand captured on a Protein A chip; not shown: mono-Fc part) QVQLQESGGGSVQSGGSLRLSCAASGFTYSTSNSWMAWFRQAPGKEREGVAAIYTVGGSIFYADSVRGRFTISQDATKNMFYLQMNTLKPEDTAMYYCAAASGRLRGKWFWPYEYNYWGQGTQVTVSS
14 | 44 | 0.0082 | 190000 | 44 | 0.0082 | 190000 | 28 | – | – | – | – | – | – | – | 19-DR596 (SEQ ID NO. 237), anti-hGP130 Mono-Fc VHH (Fc fusion, Mono-Fc VHH ligand captured on a Protein A chip; not shown: mono-Fc part) QVQLQESGGGLVQPGGSLRLSCTASGLTFDDSVMGWFRQAPGKGREAVSCISSSGANAFYADSVKGRFTISRDNAKNTLYLQMNSLKPEDTATYYCKRGHACAGYYPIPYDDYWGQGTQVTVSS
15 | 58 | 0.0095 | 160000 | 58 | 0.0095 | 160000 | 21 | – | – | – | – | – | – | – | 17-DR594 (SEQ ID NO. 235), anti-hGP130 Mono-Fc VHH (Fc fusion, Mono-Fc VHH ligand captured on a Protein A chip; not shown: mono-Fc part) QVQLQESGGGSVQAGGSLRLSCVASASTYCTYDMHWYRQAPGKGREFVSAIDSDGTTRYADSVKGRFTISQGTAKNTVYLQMNSLQPEDTAMYYCKTVCVVGSRWSDYWGQGTQVTVSS
16 | – | – | – | – | – | – | – | – | – | – | 6.1 | 0.00077 | 130000 | 18 | 26-DR603 (SEQ ID NO. 251), anti-hIL27Ra Mono-Fc VHH (Fc fusion, Mono-Fc VHH ligand captured on a Protein A chip; not shown: mono-Fc part) QVQLQESGGGLVQPGGSLRLSCAASGFTFSLSSMSWVRQAPGKGLEWVSAISSGGASTYYTDSVKGRFTISRDNAKNMLYLQLNSLKTEDTAMYYCAKGGSGYGDASRMTSPGSQGTQVTVSS

Source: US20240002542A1 (SYNTHEKINE, published 2024)
